By Kd is commonly meant the equilibrium constant for the complex coming apart.

The target of assay [1] is HLA-A*30:02. The assay can be described thus: IEDB peptide-MHC binding, purified MHC/competitive/radioactivity; filed as Kd, often an IC50 or EC50 that approximates it; ≥ and ≤ were set here for values at or beyond the usual limits of such assays.
Assay [2] addresses HLA-A*01:01. The description is as above.
In assay [3] the target is HLA-A*24:02. The assay is described as above.
Assay [4] deals with HLA-A*29:02. Described as above.
For assay [5], the target named is HLA-A*23:01. Described as above.
The target of assay [6] is HLA-A*26:01. The assay is described as above.
Assay [7] addresses HLA-B*58:01. As to the kind of experiment: IEDB peptide-MHC binding, purified MHC/direct/fluorescence; filed as Kd, often an IC50 or EC50 that approximates it; ≥ and ≤ were set here for values at or beyond the usual limits of such assays. The note with it: source organism: Mycobacterium tuberculosis variant bovis BCG str. Pasteur 1173P2.
Assay [8] deals with HLA-A*30:01. The assay can be described thus: IEDB peptide-MHC binding, purified MHC/competitive/radioactivity; filed as Kd, often an IC50 or EC50 that approximates it; ≥ and ≤ were set here for values at or beyond the usual limits of such assays.
Assay [9] has as its target HLA-A*11:01. The assay is described as above.
Assay [10] concerns the target HLA-A*33:01. Described as above.
In assay [11] the target is HLA-A*03:01. The description is as above. The note with it: source organism: Vaccinia virus WR.
The target in assay [12] is HLA-A*68:01. The description is as above.
The target of assay [13] is HLA-A*31:01. The assay is described as above. The note with it: source organism: Vaccinia virus WR.
Assay [14] addresses HLA-B*08:01. The assay is described as above. Particulars: source organism: Dengue virus 3 Martinique/1243/1999.
[15] abbreviates: source organism: SARS coronavirus Tor2.
Setting [16] is: source organism: Vaccinia virus WR.
The mark [17] stands for this setting: source organism: Mammarenavirus brazilense.
[18] abbreviates: source organism: Triticum aestivum.
[19] abbreviates: source organism: Lassa virus GA391.
Where [20] appears, read: source organism: Dengue virus 1 Brazil/97-11/1997.
Setting [21] is: source organism: Mammarenavirus machupoense.
Setting [22] is: source organism: Mammarenavirus whitewaterense.
Where [23] appears, read: source organism: Dengue virus 3 Martinique/1243/1999.

For ETLLPLTQY, the dissociation constant Kd is 4310 nM in [1] (setting [15]); no less than 33100 nM in assay [2] (setting [15]); no less than 77600 nM in assay [3] (setting [15]); 262 nM in assay [4] (setting [15]); no less than 77800 nM in assay [5] (setting [15]); 43.5 nM in assay [6] (setting [15]).
As for AAAAPYAGW, in assay [7], the Kd stood at 27.1 nM.
As to FYLYLTFYF, the Kd was no less than 96800 nM in assay [1] (setting [15]); 3690 nM in assay [2] (setting [15]); no less than 77600 nM in assay [3] (setting [15]); no less than 75000 nM in assay [4] (setting [15]); no less than 29300 nM in [5] (setting [15]); 2050 nM in [6] (setting [15]).
Turning to KTLDISSFY, the equilibrium dissociation constant (Kd) in assay [8] (setting [16]) was 23.3 nM; in assay [9] (setting [16]), 6.46 nM; in [10] (setting [16]), no less than 41900 nM; in [11] it was 19 nM; in assay [12] (setting [16]), 187 nM; in assay [13] it was 88.3 nM.
For the sequence SIKRNYPYLF, the Kd is 1020 nM in assay [3] (setting [17]), 2340 nM in [4] (setting [17]) and 758 nM in assay [5] (setting [17]).
As for NTLISSDGAR, the Kd in assay [9] (setting [16]) is 359 nM; in [10] (setting [16]) it was 286 nM; in assay [11], 2350 nM; in assay [4] (setting [16]) it was no less than 46900 nM; in assay [12] (setting [16]) it was 6.07 nM; in assay [13], 260 nM.
As to QYPSGQGSF, the dissociation constant (Kd) is 1.17 nM in assay [1] (setting [18]); no less than 61500 nM in assay [2] (setting [18]); 3390 nM in assay [3] (setting [18]); 175 nM in assay [4] (setting [18]); no less than 35700 nM in [5] (setting [18]); no less than 49300 nM in assay [6] (setting [18]).
Consider YCNYSRYWYL, for which the Kd in assay [1] (setting [19]) is 11900 nM; in assay [2] (setting [19]), no less than 70400 nM; in [3] (setting [19]), 3280 nM; in [4] (setting [19]), 8340 nM; in [5] (setting [19]), 1150 nM; in [6] (setting [19]), no less than 69700 nM.
Turning to ISAGFSLWIY, the dissociation constant (Kd) in assay [1] (setting [15]) is 9.64 nM; in assay [2] (setting [15]), 52.3 nM; in [3] (setting [15]), no less than 70300 nM; in [4] (setting [15]), 2.3 nM; in assay [5] (setting [15]), no less than 28800 nM; in [6] (setting [15]) it was 1090 nM.
Turning to MVLLTMKEK, the values for the dissociation constant Kd in [8] (setting [20]) and in assay [9] (setting [20]) were 2780 nM and 366 nM, respectively.
VYHITVSQI: the equilibrium dissociation constant (Kd) in [1] (setting [15]) is no less than 81100 nM; in assay [2] (setting [15]), no less than 31300 nM; in assay [3] (setting [15]) it was 26.6 nM; in [4] (setting [15]), no less than 28900 nM; in assay [5] (setting [15]), 98 nM; in assay [6] (setting [15]), no less than 77900 nM.
In the case of LCMLNNSFYY, the dissociation constant Kd in [1] (setting [21]) is 11.7 nM; in [2] (setting [21]), 612 nM; in assay [3] (setting [21]), no less than 47800 nM; in assay [4] (setting [21]) it was 5.43 nM; in assay [5] (setting [21]) it was no less than 29300 nM; in assay [6] (setting [21]), no less than 69700 nM.
Regarding DHHFTPQII, the dissociation constant (Kd) in [1] (setting [22]) was no less than 50800 nM; in assay [2] (setting [22]), 61.5 nM; in assay [3] (setting [22]) it was no less than 43900 nM; in assay [4] (setting [22]), 2970 nM; in [5] (setting [22]) it was 11200 nM; in [6] (setting [22]), no less than 77900 nM.
On to TYTEIEPKL, for which the dissociation constant (Kd) in assay [1] (setting [15]) was no less than 78900 nM; in assay [2] (setting [15]), no less than 78100 nM; in [3] (setting [15]), no less than 29500 nM; in [4] (setting [15]), 12200 nM; in assay [5] (setting [15]) it was no less than 21500 nM; in assay [6] (setting [15]), no less than 77900 nM.
With EVKTCTWPK, the dissociation constant Kd in [8] (setting [23]) was determined as 9340 nM; in [10] (setting [23]), 8.54 nM; in [12] (setting [23]), 25.2 nM.
Turning to ACADGTRHTY, the Kd in assay [1] (setting [15]) is 32.8 nM; in assay [2] (setting [15]) it was 2160 nM; in assay [3] (setting [15]) it was no less than 70300 nM; in [4] (setting [15]), 6170 nM; in [5] (setting [15]) it was no less than 70000 nM; in assay [6] (setting [15]), no less than 86900 nM.
With MFKKRNLTI, the Kd was determined as 15.7 nM in [14], 143 nM in assay [8] (setting [23]), 158 nM in assay [3] (setting [23]) and 475 nM in [5] (setting [23]).
As for NSGPDDQIGY, the dissociation constant Kd in [1] (setting [15]) is 6790 nM; in [2] (setting [15]) it was 1010 nM; in assay [3] (setting [15]) it was no less than 33700 nM; in assay [4] (setting [15]) it was 7380 nM; in assay [5] (setting [15]), no less than 70000 nM; in [6] (setting [15]) it was 8420 nM.
